The series deals with T1, biotin-p-CABIN1-L-1 (phosphorylated CABIN1-L-1).
T1 sequence: AAAMAGFPPEITVTPPTP
Description: SPR (Biacore T200), biotin-labeled peptide captured on SA chip, His-tagged CNA at 1.25, 2.5, 5 and 10 nM, 25° C. (In SPR one partner is held on a chip, and binding of the other changes the refractive index at the surface.)

The substance “His-tagged CNA (purified; isoform not stated)” yielded a fold increase of binding affinity (phosphorylated vs unphosphorylated CABIN1 peptide) of 3 fold.

The values above are taken from US20240376163.
